Tests used:
[1] = molecular target: human preproinsulin (human); conditions: scale: % of intracellular human insulin species left as proinsulin and intermediates
[2] = molecular target: human preproglucagon (human)
[3] = molecular target: mutated human preproglucagon (arginine to alanine at amino acid residue 52) (human)

HPLC separation of intracellular immunoreactive insulin species (processing of human proinsulin to mature insulin in engineered RIN cells) [1] | NON (% TOTAL): non-amidated GLP-1 as percentage of total GLP-1 (non-amidated and amidated), by two specific immunoassays (% non-amidated of total GLP-1) [2] | NON (% TOTAL): non-amidated GLP-1 as percentage of total GLP-1 (non-amidated and amidated), by two specific immunoassays (% non-amidated of total GLP-1) [3] | Substance
8 | – | – | PC2 (from UniProt P28841) (enzyme)
8 | – | – | PC3 (from UniProt P28840) (enzyme)
– | 49 | 59 | peptidylglycine alpha-amidating monooxygenase (PAM) (from UniProt P14925) (enzyme)
